According to ChEMBL document CHEMBL1147236, “Semiplenamides A-G, fatty acid amides from a Papua New Guinea collection of the marine cyanobacterium Lyngbya semiplena” (J Nat Prod, 2003):

Substrate: CCCCC/C=C\C/C=C\C/C=C\C/C=C\CCCC(=O)NCCO
Details: Mus musculus; N18TG2
Description: Activity at FAAH in mouse N18TG2 cell membranes

B1: Fatty-acid amide hydrolase 1 (Mus musculus), O08914 (protein)
chain: MVLSEVWTALSGLSGVCLACSLLSAAVVLRWTRSQTARGAVTRARQKQRAGLETMDKAVQRFRLQNPDLDSEALLALPLLQLVQKLQSGELSPEAVLFTYLGKAWEVNKGTNCVTSYLTDCETQLSQAPRQGLLYGVPVSLKECFSYKGHASTLGLSLNEGVTSESDCVVVQVLKLQGAVPFVHTNVPQSMLSYDCSNPLFGQTMNPWKPSKSPGGSSGGEGALIGSGGSPLGLGTDIGGSIRFPSAFCGICGLKPTGNRLSKSGLKSCVYGQTAVQLSVGPMARDVDSLALCMKALLCEDLFRLDSTIPPLPFREEIYRSSRPLRVGYYETDNYTMPTPAMRRAVMETKQSLEAAGHTLVPFLPNNIPYALEVLSAGGLFSDGGCSFLQNFKGDFVDPCLGDLVLVLKLPRWFKKLLSFLLKPLFPRLAAFLNSMCPRSAEKLWELQHEIEMYRQSVIAQWKAMNLDVVLTPMLGPALDLNTPGRATGAISYTVLYNCLDFPAGVVPVTTVTAEDDAQMEHYKGYFGDMWDNILKKGMKKGIGLPVAVQCVALPWQEELCLRFMREVERLMTPEKRPS
B1 showed a Km of 15 µM.
